Measurements as given in PMC2592828.

Assays:
Experiment in all cases: far-Western, overlay or dot blot
[1] = molecular target: zw10 (endogenous, ~90-kD band) (UniProt O43264)
[2] = molecular target: p150^Glued subunit of dynactin (endogenous, band in total extracts) (UniProt Q14203)
[3] = molecular target: recombinant IC-2C T89E mutant
[4] = molecular target: recombinant IC-2C T89D mutant

UniProt O43264, sequence (O43264 whole entry): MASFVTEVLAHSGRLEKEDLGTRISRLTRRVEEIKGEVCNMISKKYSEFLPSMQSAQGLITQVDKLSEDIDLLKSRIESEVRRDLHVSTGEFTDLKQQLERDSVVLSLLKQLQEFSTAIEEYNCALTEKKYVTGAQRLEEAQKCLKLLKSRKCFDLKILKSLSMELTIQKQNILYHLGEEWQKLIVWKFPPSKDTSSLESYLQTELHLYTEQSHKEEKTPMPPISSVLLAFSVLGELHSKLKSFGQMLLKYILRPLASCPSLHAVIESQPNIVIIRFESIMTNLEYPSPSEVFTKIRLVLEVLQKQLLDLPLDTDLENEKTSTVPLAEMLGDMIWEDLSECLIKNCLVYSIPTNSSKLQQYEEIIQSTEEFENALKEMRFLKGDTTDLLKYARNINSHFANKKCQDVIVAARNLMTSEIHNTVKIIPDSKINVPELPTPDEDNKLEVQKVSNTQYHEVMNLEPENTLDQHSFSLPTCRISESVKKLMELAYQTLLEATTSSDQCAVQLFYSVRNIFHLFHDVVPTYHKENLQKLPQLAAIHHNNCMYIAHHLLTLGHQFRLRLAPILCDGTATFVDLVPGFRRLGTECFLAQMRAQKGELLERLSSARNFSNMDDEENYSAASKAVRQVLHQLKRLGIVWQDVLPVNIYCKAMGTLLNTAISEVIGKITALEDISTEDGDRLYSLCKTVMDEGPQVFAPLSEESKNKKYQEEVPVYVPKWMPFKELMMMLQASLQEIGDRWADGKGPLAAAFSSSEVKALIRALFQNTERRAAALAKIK
UniProt Q14203, sequence (Q14203 whole entry): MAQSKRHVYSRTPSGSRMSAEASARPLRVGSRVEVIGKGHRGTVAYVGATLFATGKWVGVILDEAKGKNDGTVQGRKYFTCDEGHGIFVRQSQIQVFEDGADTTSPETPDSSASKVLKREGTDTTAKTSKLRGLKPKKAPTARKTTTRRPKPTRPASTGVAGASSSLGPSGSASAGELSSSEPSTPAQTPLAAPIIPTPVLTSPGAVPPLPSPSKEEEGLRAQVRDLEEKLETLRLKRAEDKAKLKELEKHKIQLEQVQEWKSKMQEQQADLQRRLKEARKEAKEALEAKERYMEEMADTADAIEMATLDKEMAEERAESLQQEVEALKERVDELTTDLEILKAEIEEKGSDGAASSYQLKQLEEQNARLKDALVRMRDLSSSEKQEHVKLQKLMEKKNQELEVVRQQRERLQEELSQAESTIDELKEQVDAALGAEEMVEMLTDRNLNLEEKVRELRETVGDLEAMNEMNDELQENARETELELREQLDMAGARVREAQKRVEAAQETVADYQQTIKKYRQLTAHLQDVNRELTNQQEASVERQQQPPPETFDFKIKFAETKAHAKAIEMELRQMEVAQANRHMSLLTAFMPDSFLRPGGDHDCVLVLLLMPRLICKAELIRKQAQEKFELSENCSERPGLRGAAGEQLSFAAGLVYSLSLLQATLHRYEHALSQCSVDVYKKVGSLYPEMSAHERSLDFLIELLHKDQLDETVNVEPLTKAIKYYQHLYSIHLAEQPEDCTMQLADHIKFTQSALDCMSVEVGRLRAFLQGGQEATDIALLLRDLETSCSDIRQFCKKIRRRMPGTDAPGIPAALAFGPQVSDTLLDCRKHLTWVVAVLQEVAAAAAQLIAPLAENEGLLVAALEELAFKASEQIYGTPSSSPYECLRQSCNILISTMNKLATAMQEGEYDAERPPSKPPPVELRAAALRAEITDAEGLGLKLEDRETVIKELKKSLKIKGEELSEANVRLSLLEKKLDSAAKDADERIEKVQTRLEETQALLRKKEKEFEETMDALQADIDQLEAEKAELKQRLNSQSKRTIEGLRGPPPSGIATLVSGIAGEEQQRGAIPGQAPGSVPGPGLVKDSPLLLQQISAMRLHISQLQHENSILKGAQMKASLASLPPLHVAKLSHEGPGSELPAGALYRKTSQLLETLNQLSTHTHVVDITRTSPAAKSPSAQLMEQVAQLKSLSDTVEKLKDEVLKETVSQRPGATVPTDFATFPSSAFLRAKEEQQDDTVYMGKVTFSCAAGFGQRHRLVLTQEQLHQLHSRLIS

| Substance | overlay signal as percent of the endogenous IC band [1] | overlay signal as percent of the endogenous IC band [2] | fold reduction in binding against the wild type [3] | fold reduction in binding against the wild type [4] | percent increase in binding against dephospho-ICs [1] |
| --- | --- | --- | --- | --- | --- |
| recombinant IC-2C fragment spanning residues 1-284 (dephosphorylated ICs) (domain or fragment) | 31.1% | 83% |  |  |  |
| recombinant p150^Glued fragment spanning residues 1-811 (from UniProt P28023 1-811) (domain or fragment) |  |  | 4 fold | 4 fold |  |
| recombinant IC-2C fragment (residues 1-284) phosphorylated in vitro (phospho-ICs) (domain or fragment) | 96.2% | 55.4% |  |  | 100% |
